Laboratory results from PMC10155811 (2022).

Key:
[1] = target: BubR1-p; assay: ITC; doubly phosphorylated peptide KLpSPIIEDpSR
[2] = target: Bub1 peptides encompassing the putative PP2A-B56 binding motif (amino acids 654-FSPIQE-659) (human, UniProt O43683); assay: ITC; doubly phosphorylated Bub1 peptide KFpSPIQEKpSP
[3] = target: BubR1; assay: ITC; unphosphorylated peptide …

B1: B56α (natural protein)
chain: not shown
Kd [1]: 0.12 µM
Kd [2]: 41 µM
Kd [3]: 4.6 µM
